Laboratory results reported in article PMC3899939, “IpsA, a novel LacI-type regulator, is required for inositol-derived lipid formation in Corynebacteria and Mycobacteria” (BMC Biology, 2013).
Numbering of substitutions follows the chain as printed.

T1: IpsA (Cg2910) (Corynebacterium glutamicum, UniProt Q8NMF0)
T1 construct: C-terminal STREP-tag variant (pAN6-ipsA-STREP), expressed in E. coli BL21(DE3), StrepTactin and gel filtration; 79 kDa, dimer
T1 sequence (Q8NMF0 1-358): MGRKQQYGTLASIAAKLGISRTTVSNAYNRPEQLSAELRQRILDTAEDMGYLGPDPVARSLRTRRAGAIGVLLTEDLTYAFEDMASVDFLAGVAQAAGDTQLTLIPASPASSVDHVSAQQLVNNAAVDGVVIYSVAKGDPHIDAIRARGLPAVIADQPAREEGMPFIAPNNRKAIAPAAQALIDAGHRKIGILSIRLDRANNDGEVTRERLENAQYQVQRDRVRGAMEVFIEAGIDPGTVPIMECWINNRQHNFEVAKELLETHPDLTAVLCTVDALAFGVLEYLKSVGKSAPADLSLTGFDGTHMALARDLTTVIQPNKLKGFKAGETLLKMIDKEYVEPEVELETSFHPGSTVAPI

T2: IpsA-Strep (Corynebacterium glutamicum ATCC 13032, UniProt Q8NMF0 1-358)
T2 sequence: T1 sequence (Q8NMF0 1-358)

B1: cg3323 WT 30-mer (dsDNA)
DNA 1: TTGAGTTGCTTGATCGATCAGGTCTGATTT
DNA 2: AAATCAGACCTGATCGATCAAGCAACTCAA
B2: cg3323 M3 (dsDNA)
DNA 1: B1 DNA 1 with A13C, T14G, C15A
DNA 2: B1 DNA 2 with G16T, A17C, T18G
B3: cg3323 M4 (dsDNA)
DNA 1: B1 DNA 1 with G16T, A17C, T18G
DNA 2: B1 DNA 2 with A13C, T14G, C15A
B4: cg3323 M5 (dsDNA)
DNA 1: B1 DNA 1 with C19A, A20C, G21T
DNA 2: B1 DNA 2 with C10A, T11G, G12T

Tests used:
IpsA (Cg2910) = biological target: T1, IpsA (Cg2910); experiment: EMSA, dissociation of IpsA-DNA complex (ino1 promoter); assay type: binding; details: effector; IpsA preincubated 20 min with effector, then DNA; 50 mM Tris-HCl pH 7.5, 40 mM KCl, 5 mM MgCl2, room temperature
IpsA-Strep = biological target: T2, IpsA-Strep; experiment: EMSA; EMSA: 50 mM Tris-HCl pH 7.5, 40 mM KCl, 5 mM MgCl2, room temperature, 10 uL, DNA 0.028-1 uM, 10-15% native PAGE; details: protein: recombinant; tags: C-terminal STREP-tag; chain copies: 2; blunt

| Molecule | lowest concentration with observed effect (IpsA (Cg2910)) [mM] | binding result (IpsA-Strep) |
| --- | --- | --- |
| O[C@H]1[C@H](O)[C@@H](O)[C@H](O)[C@@H](O)[C@H]1O [myo-I, myo-inositol] | 0.2 | – |
| B1 | – | binds |
| B2 | – | no binding |
| B3 | – | no binding |
| B4 | – | binds |
